Key:
P6-AA-12HGe-R = target: T1, P6-AA-12HGe-R; test: two-hybrid library CCmax; details: mean of both orientations;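 also: natural log of median RNA to DNA barcode read ratio; higher means stronger binding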
T1 chain: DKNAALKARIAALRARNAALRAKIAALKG

P6-AA-12HGe-A = target: T2, P6-AA-12HGe-A; test: two-hybrid library CCmax; details: mean of both orientations;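 also: natural log of median RNA to DNA barcode read ratio; higher means stronger binding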
T2 chain: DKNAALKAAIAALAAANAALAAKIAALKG

P6-AA-12HGe-T = target: T3, P6-AA-12HGe-T; test: two-hybrid library CCmax; details: mean of both orientations;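 also: natural log of median RNA to DNA barcode read ratio; higher means stronger binding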
T3 chain: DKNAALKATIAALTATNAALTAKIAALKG

P6-AA-12HGe-Q = target: T4, P6-AA-12HGe-Q; test: two-hybrid library CCmax; details: mean of both orientations;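 also: natural log of median RNA to DNA barcode read ratio; higher means stronger binding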
T4 chain: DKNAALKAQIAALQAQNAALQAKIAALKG

P6-AA-12HGe-H = target: T5, P6-AA-12HGe-H; test: two-hybrid library CCmax; details: mean of both orientations;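 also: natural log of median RNA to DNA barcode read ratio; higher means stronger binding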
T5 chain: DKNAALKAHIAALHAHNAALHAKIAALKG

P6-AA-12HGe-W = target: T6, P6-AA-12HGe-W; test: two-hybrid library CCmax; details: mean of both orientations;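 also: natural log of median RNA to DNA barcode read ratio; higher means stronger binding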
T6 chain: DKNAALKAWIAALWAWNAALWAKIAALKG

P6-AA-12HGe-M = target: T7, P6-AA-12HGe-M; test: two-hybrid library CCmax; details: mean of both orientations
T7 chain: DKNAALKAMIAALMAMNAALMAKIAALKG

P6-AA-12HGe-D = target: T8, P6-AA-12HGe-D; test: two-hybrid library CCmax; details: mean of both orientations
T8 chain: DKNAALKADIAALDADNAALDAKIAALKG

P6-AA-12HGe-S = target: T9, P6-AA-12HGe-S; test: two-hybrid library CCmax; details: mean of both orientations
T9 chain: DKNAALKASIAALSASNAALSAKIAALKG

P6-AA-12HGe-K = target: T10, P6-AA-12HGe-K; test: two-hybrid library CCmax; details: mean of both orientations
T10 chain: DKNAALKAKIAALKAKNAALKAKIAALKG

4H575-bN = target: T11, 4H575-bN; test: two-hybrid library CCNG1
T11 chain: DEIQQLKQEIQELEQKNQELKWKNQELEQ

4H3010-bN = target: T12, 4H3010-bN; test: two-hybrid library CCNG1
T12 chain: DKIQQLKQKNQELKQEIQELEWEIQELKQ

4H953-bN = target: T13, 4H953-bN; test: two-hybrid library CCNG1
T13 chain: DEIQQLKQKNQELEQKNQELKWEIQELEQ

4H780-bN = target: T14, 4H780-bN; test: two-hybrid library CCNG1
T14 chain: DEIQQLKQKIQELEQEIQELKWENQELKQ

4H968-bN = target: T15, 4H968-bN; test: two-hybrid library CCNG1
T15 chain: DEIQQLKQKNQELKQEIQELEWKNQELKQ

4H797-bN = target: T16, 4H797-bN; test: two-hybrid library CCNG1
T16 chain: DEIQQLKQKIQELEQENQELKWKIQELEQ

4H683-bN = target: T17, 4H683-bN; test: two-hybrid library CCNG1
T17 chain: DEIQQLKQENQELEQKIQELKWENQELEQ

4H4073-bN = target: T18, 4H4073-bN; test: two-hybrid library CCNG1
T18 chain: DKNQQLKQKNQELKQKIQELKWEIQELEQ

4H457-bN = target: T19, 4H457-bN; test: two-hybrid library CCNG1
T19 chain: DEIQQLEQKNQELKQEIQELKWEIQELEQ

4H3926-bN = target: T20, 4H3926-bN; test: two-hybrid library CCNG1
T20 chain: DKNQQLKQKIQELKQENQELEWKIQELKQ

4H346-bN = target: T21, 4H346-bN; test: two-hybrid library CCNG1
T21 chain: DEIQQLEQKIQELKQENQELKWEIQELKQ

4H855-bN = target: T22, 4H855-bN; test: two-hybrid library CCNG1
T22 chain: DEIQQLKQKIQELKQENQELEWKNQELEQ

4H754-bN = target: T23, 4H754-bN; test: two-hybrid library CCNG1
T23 chain: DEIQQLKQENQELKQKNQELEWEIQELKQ

4H3427-bN = target: T24, 4H3427-bN; test: two-hybrid library CCNG1
T24 chain: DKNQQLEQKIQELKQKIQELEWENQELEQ

4H918-bN = target: T25, 4H918-bN; test: two-hybrid library CCNG1
T25 chain: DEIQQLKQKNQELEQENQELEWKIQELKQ

4H3112-bN = target: T26, 4H3112-bN; test: two-hybrid library CCNG1
T26 chain: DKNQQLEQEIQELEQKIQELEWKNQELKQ

DENAALEASIAALSASNAALSAEIAALEG [P5-AA-12HGe-S]
interaction score (P6-AA-12HGe-R): -0.734
interaction score (P6-AA-12HGe-A): -1.21
interaction score (P6-AA-12HGe-T): -1.05
interaction score (P6-AA-12HGe-Q): -0.404
interaction score (P6-AA-12HGe-H): -1.52
interaction score (P6-AA-12HGe-W): -1.53
interaction score (P6-AA-12HGe-M): -1.66
interaction score (P6-AA-12HGe-D): -1.45
interaction score (P6-AA-12HGe-S): -2.05
interaction score (P6-AA-12HGe-K): -0.261

DENAALEATIAALTATNAALTAEIAALEG [P5-AA-12HGe-T]
interaction score (P6-AA-12HGe-R): 0.245
interaction score (P6-AA-12HGe-A): -0.0467
interaction score (P6-AA-12HGe-T): -0.438
interaction score (P6-AA-12HGe-Q): 1.22
interaction score (P6-AA-12HGe-H): -1.26
interaction score (P6-AA-12HGe-W): -1.07
interaction score (P6-AA-12HGe-M): -0.283
interaction score (P6-AA-12HGe-D): -1.71
interaction score (P6-AA-12HGe-S): -1.32
interaction score (P6-AA-12HGe-K): 0.446

DENAALEAAIAALAAANAALAAEIAALEG [P5-AA-12HGe-A]
interaction score (P6-AA-12HGe-R): 0.304
interaction score (P6-AA-12HGe-A): -0.0358
interaction score (P6-AA-12HGe-T): -0.125
interaction score (P6-AA-12HGe-Q): 1.38
interaction score (P6-AA-12HGe-H): -0.816
interaction score (P6-AA-12HGe-W): -0.644
interaction score (P6-AA-12HGe-M): 0.58
interaction score (P6-AA-12HGe-D): -1.87
interaction score (P6-AA-12HGe-S): -1.02
interaction score (P6-AA-12HGe-K): 0.623

DENAALEAWIAALWAWNAALWAEIAALEG [P5-AA-12HGe-W]
interaction score (P6-AA-12HGe-R): -1.34
interaction score (P6-AA-12HGe-A): -0.131
interaction score (P6-AA-12HGe-T): -0.564
interaction score (P6-AA-12HGe-Q): 0.162
interaction score (P6-AA-12HGe-H): -1.46
interaction score (P6-AA-12HGe-W): -1.05
interaction score (P6-AA-12HGe-M): 0.011
interaction score (P6-AA-12HGe-D): -1.67
interaction score (P6-AA-12HGe-S): -0.198
interaction score (P6-AA-12HGe-K): -2.03

DKIQQLKQKNQELKQEIQELEWEIQELKQ [4H3010-bN]
interaction score (4H575-bN): -1.47
interaction score (4H3010-bN): -0.256
interaction score (4H953-bN): -1.77
interaction score (4H780-bN): -0.214
interaction score (4H968-bN): -1.13
interaction score (4H797-bN): -0.873
interaction score (4H683-bN): 1.02
interaction score (4H4073-bN): -1.32
interaction score (4H457-bN): -0.409
interaction score (4H3926-bN): -0.546
interaction score (4H346-bN): -1.97
interaction score (4H855-bN): -0.686
interaction score (4H754-bN): -1.56
interaction score (4H3427-bN): -0.668
interaction score (4H918-bN): -0.536
interaction score (4H3112-bN): -1.33

DENAALEAYIAALYAYNAALYAEIAALEG [P5-AA-12HGe-Y]
interaction score (P6-AA-12HGe-R): -0.752
interaction score (P6-AA-12HGe-A): -0.307
interaction score (P6-AA-12HGe-T): -0.218
interaction score (P6-AA-12HGe-Q): 0.323
interaction score (P6-AA-12HGe-H): -0.445
interaction score (P6-AA-12HGe-W): -0.852
interaction score (P6-AA-12HGe-M): 0.0241
interaction score (P6-AA-12HGe-D): -1.93
interaction score (P6-AA-12HGe-S): -1.51
interaction score (P6-AA-12HGe-K): -0.203

DENAALEADIAALDADNAALDAEIAALEG [P5-AA-12HGe-D]
interaction score (P6-AA-12HGe-R): -0.833
interaction score (P6-AA-12HGe-A): -1.85
interaction score (P6-AA-12HGe-T): -1.98
interaction score (P6-AA-12HGe-Q): -1.56
interaction score (P6-AA-12HGe-H): -2.35
interaction score (P6-AA-12HGe-W): -1.67
interaction score (P6-AA-12HGe-M): -2.09
interaction score (P6-AA-12HGe-D): -1.85
interaction score (P6-AA-12HGe-S): -2.03
interaction score (P6-AA-12HGe-K): -0.581

Reference: publication PMC10397247
